Key:
alkaline protease = format: biochemical, Streptomyces sp. TOTO-9305; conditions: for Residual Activity: pH 9
casein [1] = conditions: known alkaline proteases, values from References 1-3; cited from earlier work
keratin = conditions: known alkaline proteases, values from Reference 3; cited from earlier work
casein [2] = conditions: known alkaline proteases, values from References 1-3; cited from earlier work; remark: listed apart in the source
[3] = known alkaline proteases, values from References 1-3; cited from earlier work
[4] = known alkaline proteases, values from References 1-3; cited from earlier work; remark: listed apart in the source

In the case of `O=S(=O)(F)Cc1ccccc1` [PMSF, phenyl methanesulfonyl fluoride], the “inhibition of the activity of the enzyme (in words)” value (shortened to “inhibition”) (alkaline protease) is reported as “inhibited” and the “Residual Activity” value (alkaline protease) is reported as 0.

For `CCCCCCCCCCCCOS(=O)(=O)[O-].[Na+]` [SDS, sodium dodecylsulfate], the “inhibition” value (alkaline protease) was “slightly inhibited” and the “Residual Activity” value (alkaline protease) was 74.

With `O=C(O)c1cc[c]([Hg][Cl])cc1` [PCMB, p-chloromercuribenzoate] the “inhibition” value (alkaline protease) was “not inhibited” and the “Residual Activity” value (alkaline protease) was 91.

With `O=C(O)CN(CCN(CC(=O)O)CC(=O)O)CC(=O)O` [EDTA, ethylene-diaminetetraacetic acid] the “inhibition” value (alkaline protease) was “not inhibited” and the “Residual Activity” value (alkaline protease) was 91.

In the case of `O=C(O)CI` [Iodoacetic Acid, iodoacetic acid], the “inhibition” value (alkaline protease) is reported as “not inhibited” and the “Residual Activity” value (alkaline protease) is reported as 96.

B1: Subtilisin Carlsberg: conventional alkaline protease, subtilisin Carlsberg (protein, UniProt P00780 106-379, looked up)
Subtilisin Carlsberg: AQTVPYGIPLIKADKVQAQGFKGANVKVAVLDTGIQASHPDLNVVGGASFVAGEAYNTDGNGHGTHVAGTVAALDNTTGVLGVAPSVSLYAVKVLNSSGSGSYSGIVSGIEWATTNGMDVINMSLGGASGSTAMKQAVDNAYAKGVVVVAAAGNSGSSGNTNTIGYPAKYDSVIAVGAVDSNSNRASFSSVGAELEVMAPGAGVYSTYPTNTYATLNGTSMASPHVAGAAALILSKHPNLSASQVRNRLSSTATYLGSSFYYGKGLINVEAAAQ
For B1, the “Specific Activity: Casein” value (casein [1]) is listed as 6,500 U/mg protein, the “Specific Activity: Keratin” value (keratin) is listed as 888 U/mg protein and the “Optimum pH: Casein” value (casein [2]) is listed as 10.5. For the same molecule, the “Optimum Temp.” value [3] was 50 °C and the “Isoelectric Point” value [4] was 9.8.

B2: Subtilisin B. subtilis: conventional alkaline protease, subtilisin of B. subtilis (protein, UniProt P04189 107-381, looked up)
Subtilisin E: AQSVPYGISQIKAPALHSQGYTGSNVKVAVIDSGIDSSHPDLNVRGGASFVPSETNPYQDGSSHGTHVAGTIAALNNSIGVLGVAPSASLYAVKVLDSTGSGQYSWIINGIEWAISNNMDVINMSLGGPTGSTALKTVVDKAVSSGIVVAAAAGNEGSSGSTSTVGYPAKYPSTIAVGAVNSSNQRASFSSAGSELDVMAPGVSIQSTLPGGTYGAYNGTSMATPHVAGAAALILSKHPTWTNAQVRDRLESTATYLGNSFYYGKGLINVQAAAQ
In the case of B2, the “Specific Activity: Casein” value (casein [1]) is given as 2,900 U/mg protein, the “Optimum pH: Casein” value (casein [2]) is given as 10.5 and the “Optimum Temp.” value [3] is given as 55 °C. For the same molecule, the “Isoelectric Point” value [4] was 7.5-8.0.

B3: Subtilisin BPN^1: conventional alkaline protease, subtilisin BPN (protein, UniProt P00782 108-382, looked up)
Subtilisin BPN': AQSVPYGVSQIKAPALHSQGYTGSNVKVAVIDSGIDSSHPDLKVAGGASMVPSETNPFQDNNSHGTHVAGTVAALNNSIGVLGVAPSASLYAVKVLGADGSGQYSWIINGIEWAIANNMDVINMSLGGPSGSAALKAAVDKAVASGVVVVAAAGNEGTSGSSSTVGYPGKYPSVIAVGAVDSSNQRASFSSVGPELDVMAPGVSIQSTLPGNKYGAYNGTSMASPHVAGAAALILSKHPNWTNTQVRSSLENTTTKLGDSFYYGKGLINVQAAAQ
In the case of B3, the “Specific Activity: Casein” value (casein [1]) is given as 2,200 U/mg protein, the “Specific Activity: Keratin” value (keratin) is given as 436 U/mg protein and the “Optimum pH: Casein” value (casein [2]) is given as 10.5. The “Isoelectric Point” value [4] was 7.8.

— patent publication US6156557A, “Alkaline protease from streptomyces sp. and method for preparing the same” (Toto Ltd., priority 1998, dated 2000)
